Experimental data published in the supplement of paper PMC7877785.
± gives the uncertainty stated by the source.

Experiment: self-splicing fitness, log relative to wild type (ln ratio); higher = more splicing; Tetrahymena group I intron in knt gene, E. coli kanamycin selection, DiMSum; sequences stand for … in CUCUCU…GGAGGGAAAAGUUAUCAGGCAUGCACCUGGUAGCUAGUCUUUAAACCAAUAGAUUGCAUCGGUUUAAAAGGCAAGACCGUCAAAUUGCGGGAAAGGGGUCAACAGCCGUUCAGUACCAAGUCUCAGGGGAAACUUUGAGAUGGCCUUGCAAAGGGUAUGGUAAUAAGCUGACGGACAUGGUCCUAACCACGCAGCCAAGUCCUAAGUCAACAGAUCUUCUGUUGAUAUGGAUGCAGUUCACAGACUAAAUGUCGGUCGGGGAAGAUGUAUUCUUCUCAUAAGAUAUAGUCGGACCUCUCCUUAAUGGGAGCUAGCGGAUGAAGUGAUGCAACACUGGAGCCGCUGGGAACUAAUUUGUAUGCGAAAGUAUAUUGAUUAGUUUUGGAGUACUCGUGGUCG
Procedure, shortened: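 Colonies from six replicate transformations of E. coli BL21(DE3) were pooled and amplicon-sequenced on an Illumina HiSeq 2500. The library placed an intron with all eight P1ex-region nucleotides randomised inside the knt kanamycin-resistance gene on pET-22b(+), and cells grew overnight at 37°C or 30°C on LB agar with or without 25 μg/mL kanamycin (plus 100 μg/mL carbenicillin, 50 μM IPTG, 0.2% rhamnose). Fitness is the DiMSum error-weighted combination of wild-type-normalised replicate fold changes, kanamycin versus none.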

| Sequence | self-splicing fitness (ln) (30 °C) | self-splicing fitness (ln) (37 °C) |
| --- | --- | --- |
| CAUCAGCAAUAUUACGGCUA | -2.82 ± 0.2 | -1.44 ± 0.16 |
| CAUCAGCAAUAUUACGGGGA | -2.59 ± 0.14 | -1.22 ± 0.12 |
| CAUCAGCAAUAUUACGUACC | -2.74 ± 0.3 | -1.63 ± 0.28 |
| CAUCAGCAAUAUUACGUAGC | -3.39 ± 0.21 | -1.98 ± 0.19 |
| CAUCAGCAAUAUUACGUCUA | -2.35 ± 0.095 | -1.58 ± 0.08 |
| CAUCAGCAAUAUUACGUGCC | -2.97 ± 0.16 | -2.47 ± 0.24 |
| CAUCAGCAAUAUUACGUUCG | 0.13 ± 0.046 | -0.286 ± 0.063 |
| CAUCAGCAAUAUUACGUUGA | -3 ± 0.15 | -3.46 ± 0.24 |
| CAUGAGCAAUAUUACGAAAU | -2.72 ± 0.3 | -3.25 ± 0.43 |
| CAUGAGCAAUAUUACGAAUA | -1.59 ± 0.18 | -2.72 ± 0.4 |
| CAUGAGCAAUAUUACGACAA | – | -1.36 ± 0.33 |
| CAUGAGCAAUAUUACGACGU | -4.25 ± 0.39 | -0.969 ± 0.2 |
| CAUGAGCAAUAUUACGACUC | -3.85 ± 0.3 | -3.38 ± 0.39 |
| CAUGAGCAAUAUUACGAGUG | -2.67 ± 0.13 | -3 ± 0.21 |
| CAUGAGCAAUAUUACGAGUU | – | -2.6 ± 0.24 |
| CAUGAGCAAUAUUACGAUAC | -2.93 ± 0.35 | – |
| CAUGAGCAAUAUUACGAUCU | -2.9 ± 0.36 | -2.37 ± 0.3 |
| CAUGAGCAAUAUUACGAUUA | -3.08 ± 0.24 | -2.02 ± 0.21 |
| CAUGAGCAAUAUUACGCCAA | -3.67 ± 0.41 | -2.53 ± 0.36 |
| CAUGAGCAAUAUUACGCUUA | -3.77 ± 0.43 | -2.19 ± 0.25 |
| CAUGAGCAAUAUUACGGAAG | -1.47 ± 0.077 | -0.61 ± 0.1 |
| CAUGAGCAAUAUUACGGCAG | -0.481 ± 0.086 | -0.96 ± 0.14 |
| CAUGAGCAAUAUUACGGGAG | -1 ± 0.095 | -1.54 ± 0.13 |
| CAUGAGCAAUAUUACGUACA | -3.1 ± 0.22 | -2.17 ± 0.3 |
| CAUGAGCAAUAUUACGUAUA | -3.31 ± 0.3 | -2.2 ± 0.21 |

| Sequence | self-splicing fitness (ln) (30 °C) | self-splicing fitness (ln) (37 °C) |
| --- | --- | --- |
| CAUGAGCAAUAUUACGUAUU | -3.86 ± 0.46 | -0.455 ± 0.16 |
| CAUGAGCAAUAUUACGUCGA | -2.57 ± 0.33 | – |
| CAUGAGCAAUAUUACGUCUU | -4.56 ± 0.34 | -2.53 ± 0.25 |
| CAUGAGCAAUAUUACGUGUA | -3.33 ± 0.21 | -2.1 ± 0.15 |
| CAUGAGCAAUAUUACGUUCA | -3.67 ± 0.26 | -2.29 ± 0.17 |
| CAUGAGCAAUAUUACGUUCG | -1.33 ± 0.13 | -0.161 ± 0.14 |
| CAUGAGCAAUAUUACGUUUA | -3.69 ± 0.21 | -2.84 ± 0.2 |
| CAUUAGCAAUAUUACGACGC | -1.73 ± 0.39 | – |
| CAUUAGCAAUAUUACGCAGU | -3.73 ± 0.18 | -2.77 ± 0.22 |
| CAUUAGCAAUAUUACGCCAG | -0.337 ± 0.094 | 0.267 ± 0.12 |
| CAUUAGCAAUAUUACGCCCA | -2.43 ± 0.2 | -1.47 ± 0.24 |
| CAUUAGCAAUAUUACGGAAG | -0.396 ± 0.1 | -0.104 ± 0.12 |
| CAUUAGCAAUAUUACGGGAG | -1.46 ± 0.12 | -1.09 ± 0.11 |
| CAUUAGCAAUAUUACGUGAC | -3.18 ± 0.26 | -1.58 ± 0.33 |
| CAUUAGCAAUAUUACGUUCU | -2.56 ± 0.15 | -2.62 ± 0.16 |
| CCAAAGCAAUAUUACGACCU | -3.31 ± 0.21 | -3.23 ± 0.38 |
| CCAAAGCAAUAUUACGACUU | -3.77 ± 0.16 | -3.01 ± 0.2 |
| CCAAAGCAAUAUUACGAGCC | -3.2 ± 0.21 | -2.07 ± 0.19 |
| CCAAAGCAAUAUUACGCCUC | -3.33 ± 0.29 | -2.52 ± 0.32 |
| CCAAAGCAAUAUUACGCGGU | -4.85 ± 0.29 | -1.78 ± 0.21 |
| CCAAAGCAAUAUUACGCUAC | -2.17 ± 0.23 | -1.58 ± 0.27 |
| CCAAAGCAAUAUUACGCUAG | -3.78 ± 0.2 | -2.4 ± 0.16 |
| CCAAAGCAAUAUUACGCUCC | -1.01 ± 0.2 | -1.74 ± 0.36 |
| CCAAAGCAAUAUUACGGAAA | -1.03 ± 0.26 | -3 ± 0.38 |
| CCAAAGCAAUAUUACGGAAC | – | -2.53 ± 0.36 |

| Sequence | self-splicing fitness (ln) (30 °C) | self-splicing fitness (ln) (37 °C) |
| --- | --- | --- |
| CCAAAGCAAUAUUACGGAAG | -2 ± 0.056 | -1.11 ± 0.074 |
| CCAAAGCAAUAUUACGGCAC | -4.07 ± 0.24 | -2.89 ± 0.21 |
| CCAAAGCAAUAUUACGGCCC | -3.57 ± 0.43 | – |
| CCAAAGCAAUAUUACGGCUG | -0.987 ± 0.069 | -0.917 ± 0.088 |
| CCAAAGCAAUAUUACGUAGG | -3.85 ± 0.18 | -1.66 ± 0.12 |
| CCAAAGCAAUAUUACGUAGU | -3.67 ± 0.15 | -3.14 ± 0.14 |
| CCAAAGCAAUAUUACGUAUU | -4.14 ± 0.13 | -2.71 ± 0.12 |
| CCAAAGCAAUAUUACGUCUU | -4.12 ± 0.21 | -2.43 ± 0.14 |
| CCAAAGCAAUAUUACGUGAU | -3.5 ± 0.21 | -3.14 ± 0.24 |
| CCAAAGCAAUAUUACGUGGG | -2.85 ± 0.12 | -2.9 ± 0.17 |
| CCACAGCAAUAUUACGAGGA | -3.8 ± 0.18 | -1.32 ± 0.12 |
| CCACAGCAAUAUUACGAGGU | -4.41 ± 0.2 | -2.81 ± 0.16 |
| CCACAGCAAUAUUACGAUCA | -2.69 ± 0.33 | -1.98 ± 0.28 |
| CCACAGCAAUAUUACGAUCU | -3.57 ± 0.16 | -2.43 ± 0.16 |
| CCACAGCAAUAUUACGCAAA | -2.03 ± 0.22 | -3.24 ± 0.32 |
| CCACAGCAAUAUUACGCACC | -2.62 ± 0.28 | -1.71 ± 0.28 |
| CCACAGCAAUAUUACGCCCG | -0.882 ± 0.078 | -0.0155 ± 0.09 |
| CCACAGCAAUAUUACGCCCU | -2.75 ± 0.25 | -2.08 ± 0.23 |
| CCACAGCAAUAUUACGCCUU | -3.21 ± 0.17 | -1.59 ± 0.14 |
| CCACAGCAAUAUUACGCGAA | -3.53 ± 0.2 | -3.29 ± 0.21 |
| CCACAGCAAUAUUACGCGCA | -3.95 ± 0.3 | -3.06 ± 0.24 |
| CCACAGCAAUAUUACGCUCG | -1.34 ± 0.077 | -0.135 ± 0.088 |
| CCACAGCAAUAUUACGCUGG | -4.04 ± 0.22 | -2.58 ± 0.2 |
| CCACAGCAAUAUUACGGUAU | -3.97 ± 0.19 | -2.6 ± 0.16 |
| CCACAGCAAUAUUACGGUCA | -3.27 ± 0.21 | -3.22 ± 0.34 |

| Sequence | self-splicing fitness (ln) (30 °C) | self-splicing fitness (ln) (37 °C) |
| --- | --- | --- |
| CCACAGCAAUAUUACGGUUC | -3.39 ± 0.18 | -2.27 ± 0.19 |
| CCACAGCAAUAUUACGGUUU | -4.31 ± 0.19 | -2.8 ± 0.16 |
| CCACAGCAAUAUUACGUAAU | -3.17 ± 0.13 | -2.41 ± 0.2 |
| CCACAGCAAUAUUACGUACA | -2.84 ± 0.19 | -2.96 ± 0.34 |
| CCACAGCAAUAUUACGUAUG | -0.654 ± 0.047 | -0.391 ± 0.065 |
| CCACAGCAAUAUUACGUCCG | -0.456 ± 0.053 | 0.344 ± 0.068 |
| CCACAGCAAUAUUACGUCGU | -4.38 ± 0.17 | -3.14 ± 0.17 |
| CCACAGCAAUAUUACGUGUC | -3.11 ± 0.15 | -2.68 ± 0.16 |
| CCACAGCAAUAUUACGUUAA | -3.12 ± 0.14 | -2.48 ± 0.14 |
| CCACAGCAAUAUUACGUUGA | -3.67 ± 0.17 | -3.31 ± 0.18 |
| CCAGAGCAAUAUUACGAAGC | -3.1 ± 0.24 | -2.71 ± 0.27 |
| CCAGAGCAAUAUUACGAAUA | -2.84 ± 0.23 | -3.27 ± 0.42 |
| CCAGAGCAAUAUUACGAAUG | -1.73 ± 0.097 | -0.868 ± 0.12 |
| CCAGAGCAAUAUUACGAGAC | -4.31 ± 0.46 | -2.66 ± 0.3 |
| CCAGAGCAAUAUUACGAGGU | -3.71 ± 0.24 | -2.77 ± 0.29 |
| CCAGAGCAAUAUUACGAUCC | – | -1.91 ± 0.38 |
| CCAGAGCAAUAUUACGAUUA | -3.29 ± 0.3 | – |
| CCAGAGCAAUAUUACGCCGA | -2.35 ± 0.28 | -2.65 ± 0.44 |
| CCAGAGCAAUAUUACGCCUU | -3.57 ± 0.25 | -2.37 ± 0.25 |
| CCAGAGCAAUAUUACGCGAG | -2.77 ± 0.17 | -2.36 ± 0.25 |
| CCAGAGCAAUAUUACGCGUC | -3.45 ± 0.24 | -3 ± 0.3 |
| CCAGAGCAAUAUUACGCUAA | -2.74 ± 0.24 | -2.57 ± 0.24 |
| CCAGAGCAAUAUUACGGGCG | -1.5 ± 0.085 | -0.383 ± 0.1 |
